Measurements reported in patent US8409825B2, “Method for high-level secretory production of protein” (National Institute of Advanced Industrial Science and …, priority 2007, dated 2013).
Where “and” joins values, the source holds several entries; their conditions need not be identical. Equal entries are not always repeated.

Key:
Assay type in all cases: biochemical
M. lysodeikticus = experiment: Bacteriolytic activity of secreted human lysozyme; conditions: Table 3; for Bacteriolytic activity: culture supernatant, clones 1 to 3, 10 minutes at room temperature, absorbance at 450 nm; for Specific activity: per total amount of protein in culture supernatant, clones 1 to 3
Text: The expression vector for the aMF secretory signal-fused hLyz gene, onaP21808, was introduced into the ona01206 strain into which no chaperone combination was introduced, a strain that constitutively expresses a combination of O. minuta-derived chaperone genes; i.e., OmPDI1, OmERO1, and OmKar2, (i.e., the ona44607 strain), and a strain that constitutively expresses a combination of human-derived chaperone genes; i.e., synthetic hPDI, synthetic hERO1-Lβ, and synthetic hGRP78, (i.e., the ona68908 strain). Three clones were arbitrarily selected from the resulting colonies and cultured.
Also, bacteriolytic activity was assayed in the following manner. Bacteria of M. lysodeikticus was used as a substrate, and it was suspended in 50 mM phosphate buffer to prepare a substrate solution with a concentration of 0.16 mg/ml. To 240 μl of this substrate solution, 10 μl of a culture supernatant (the secreted human lysozyme) was added, and the mixture was incubated at room temperature for 10 minutes. Thereafter, the absorbance at 450 nm was assayed. […] Thus, a unit of lysozyme activity was defined as the amount of an enzyme that is necessary for the absorbance at 450 nm to be lowered by 0.001 per minute. Also, the total amount of proteins in the culture supernatant was assayed using the DC protein assay kit II (Bio-Rad, 500-0112JA) using bovine serum albumin as the standard.

[1] = molecular target: T1, human alpha-2,3-sialic acid transferase (ST3GalI) (Homo sapiens, UniProt Q11201); experiment: Sialic acid transferase (ST3GalI) enzyme activity assay of crude enzyme solution, HPLC, core 1-pNP substrate; conditions: for Specific activity: Table 1, culture supernatant equivalent to 10 μU, EndoHf treated, Western blot signal intensity; for Activity: Table 2, culture supernatant, assayed with the elapse of time
T1 construct: The catalyst domain of the ST3GalI gene was first amplified via PCR; His6 (N); made in house; host or cells: Ogataea minuta TK10-1-2 derived strains (YT-2 to YT-7), with or without co-expressed O. minuta chaperones; culture supernatant used as crude enzyme
T1 sequence (Q11201 35-340 limits assumed): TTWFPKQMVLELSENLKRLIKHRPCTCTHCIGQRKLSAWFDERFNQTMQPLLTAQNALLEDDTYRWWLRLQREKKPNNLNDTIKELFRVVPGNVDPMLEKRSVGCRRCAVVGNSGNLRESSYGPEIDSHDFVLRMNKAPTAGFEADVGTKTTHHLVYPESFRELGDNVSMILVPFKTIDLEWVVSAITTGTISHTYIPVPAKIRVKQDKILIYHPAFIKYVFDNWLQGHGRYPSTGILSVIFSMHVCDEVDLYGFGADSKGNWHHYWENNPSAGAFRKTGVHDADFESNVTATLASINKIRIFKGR
Procedure: The YT-2 strain and the YT-3 strain were inoculated in 5 ml of YPAD+KCl medium (2% polypeptone, 1% yeast extract, 2% glucose, adenine (40 mg/l), 0.3 M potassium chloride), and preculture was carried out at 30° C. overnight. Subsequently, 1 ml of a preculture solution was inoculated in 150 ml of YPAD+KCl medium, and culture was carried out at 30° C. for 48 hours. The strains were recovered, resuspended in 100 ml of BMMY+2% casamino acid medium (1% yeast extract, 2% polypeptone, 1.34% Yeast Nitrogen Base without amino acids (Difco), 0.1 M KPi (pH 6.0), 2% casamino acid, 1% methanol), and cultured at 20° C. for 96 hours. Methanol was added to a concentration of 0.5% every 12 hours. After the completion of culture, the culture product was subjected to centrifugation to remove yeast cells, and the resulting solution was designated as a crude enzyme solution.
Enzyme activity was assayed in the following manner. A crude enzyme solution (2 μl) was added to 18 μl of a reaction solution (0.1 M Tris-HCl (pH 7.5), 1 mM MnCl2, 5 mM CMP-NeuAc, 50 μM core 1-pNP), and the reaction was initiated. After the reaction was carried out at 37° C. for 30 minutes, the reaction was terminated via boiling, and HPLC analysis was carried out. A Cosmosil 5C18-ARII column (4.6×250 mm, Nacalai Tesque, Inc.) was used, and a mixture of 0.2 M triethylamine-acetic acid (pH 7.0, solution A) and acetonitrile (solution B) (solution A:solution B=9:1) was used as a mobile phase. The column was equilibrated, the sample was injected therein, and elution was carried out 20 minutes thereafter. Detection was carried out using a UV detector (detection wavelength: 300 nm). A core1-pNP substrate was eluted 14.5 minutes later, and a reaction product, sialylcore1-pNP, was eluted 17 minutes later. The reaction product was quantified based on the peak area, and the result was designated as activity (U). The unit “1 U” was defined as the amount of an enzyme that is necessary to produce 1 μmol of the reaction product per minute.
Western blot analysis was then carried out. The culture supernatants in amounts equivalent to “10 μU” of the YT-2 strain and the YT-3 strain were subjected to treatment with EndoHf (NEB, P0703S) in accordance with the protocol, applied, and then subjected to SDS-PAGE. After electrophoresis, the product was transferred to a PVDF membrane, and Western blotting was carried out in accordance with a conventional technique. A mouse anti-FLAG M2 antibody (Sigma, F1804) was used as a primary antibody and an anti-mouse IgG antibody-alkaline phosphatase composite was used as a secondary antibody. Detection was carried out using CDP-Star and an image analyzer, LAS1000 (Fujifilm Corporation). Further, signals were quantified using Image Gauge (Fujifilm Corporation).
The expression vector for various chaperone gene combinations derived from O. minuta prepared in Example 4 was introduced into the YT-1 strain of Example 17. In the same manner as in Example 16, plasmids were cleaved with NotI to transform the YT-1 strain. After transformation, the resultant was applied on SD-Ura medium (2% glucose, 0.17% Yeast Nitrogen Base without amino acids (Difco), nucleic acid bases except for uracil, and amino acid mixture (20 to 400 mg/l)) and culture was carried out at 30° C. for 2 days. Whether or not the expression vector was incorporated into a chromosome was confirmed via colony PCR described in Example 5, an expressed strain having a coexpression vector (onaP09407) carrying two copies of the OmPDI1 expression cassette was designated as the YT-4 strain, an expressed strain having a coexpression vector (onaP09707) for OmPDI1 and OmKar2 was designated as the YT-5 strain, an expressed strain having a coexpression vector (onaP09507) for OmPDI1 and OmERO1 was designated as the YT-6 strain, and an expressed strain having a coexpression vector (onaP09607) for OmPDI1 and OmHSP104 was designated as the YT-7 strain. […]

[2] = molecular target: T1, human alpha-2,3-sialic acid transferase (ST3GalI); experiment: as above; conditions: Table 2, 30 μl culture supernatant, Western blot signal intensity, with the elapse of time

## Ona01206: secreted human lysozyme sample from strain into which no chaperone combination was introduced
M. lysodeikticus
  Bacteriolytic activity: 23.0 unit/ml and 22.3 unit/ml and 22.0 unit/ml
  Specific activity: 0.45 unit/mg and 0.42 unit/mg and 0.43 unit/mg

## Ona44607: secreted human lysozyme sample from strain constitutively expressing OmPDI1, OmERO1, and OmKar2
M. lysodeikticus
  Bacteriolytic activity: 33.3 unit/ml and 34.0 unit/ml
  Specific activity: 0.67 unit/mg and 0.65 unit/mg

## Ona68908: secreted human lysozyme sample from strain expressing synthetic hPDI, synthetic hERO1-Lβ, and synthetic hGRP78
M. lysodeikticus
  Bacteriolytic activity: 36.0 unit/ml and 29.3 unit/ml and 33.3 unit/ml
  Specific activity: 0.68 unit/mg and 0.61 unit/mg and 0.65 unit/mg

B1: YT-3: ST3GalI crude enzyme solution from O. minuta strain into which OmPDI1 (onaP03606) had been introduced (protein, UniProt Q11201 1-340, looked up)
CMP-N-acetylneuraminate-beta-g …: MVTLRKRTLKVLTFLVLFIFLTSFFLNYSHTMVATTWFPKQMVLELSENLKRLIKHRPCTCTHCIGQRKLSAWFDERFNQTMQPLLTAQNALLEDDTYRWWLRLQREKKPNNLNDTIKELFRVVPGNVDPMLEKRSVGCRRCAVVGNSGNLRESSYGPEIDSHDFVLRMNKAPTAGFEADVGTKTTHHLVYPESFRELGDNVSMILVPFKTIDLEWVVSAITTGTISHTYIPVPAKIRVKQDKILIYHPAFIKYVFDNWLQGHGRYPSTGILSVIFSMHVCDEVDLYGFGADSKGNWHHYWENNPSAGAFRKTGVHDADFESNVTATLASINKIRIFKGR
[1]; 96 hours later, FIG. 15
  difference in the expression levels (enzyme activity) compared with YT-2: approximately 3.4 times
[1]
  Specific activity: 3.36 pU/AU
[1]; YT-3 versus YT-2
  elevation of the specific activity by introduction of OmPDI1: approximately 1.6 times

B2: YT-7: ST3GalI culture supernatant from strain coexpressing OmPDI1 and OmHSP104 (protein, UniProt Q11201 1-340, looked up)
CMP-N-acetylneuraminate-beta-g …: MVTLRKRTLKVLTFLVLFIFLTSFFLNYSHTMVATTWFPKQMVLELSENLKRLIKHRPCTCTHCIGQRKLSAWFDERFNQTMQPLLTAQNALLEDDTYRWWLRLQREKKPNNLNDTIKELFRVVPGNVDPMLEKRSVGCRRCAVVGNSGNLRESSYGPEIDSHDFVLRMNKAPTAGFEADVGTKTTHHLVYPESFRELGDNVSMILVPFKTIDLEWVVSAITTGTISHTYIPVPAKIRVKQDKILIYHPAFIKYVFDNWLQGHGRYPSTGILSVIFSMHVCDEVDLYGFGADSKGNWHHYWENNPSAGAFRKTGVHDADFESNVTATLASINKIRIFKGR
[2]; listed as YT-7-1
  Specific activity: 11.4 pU/AU
[2]; listed as YT-7-2
  Specific activity: 27.9 pU/AU
[2]; listed as YT-7-3
  Specific activity: 42.5 pU/AU
[2]; listed as YT-7-4
  Specific activity: 57.3 pU/AU
[1]; listed as YT-7-1
  Activity: 1.28 mU/ml
[1]; listed as YT-7-2
  Activity: 2.98 mU/ml
[1]; listed as YT-7-3
  Activity: 3.45 mU/ml
[1]; listed as YT-7-4
  Activity: 3.65 mU/ml

B3: YT-5: ST3GalI culture supernatant from strain coexpressing OmPDI1 and OmKar2 (protein, UniProt Q11201 1-340, looked up)
CMP-N-acetylneuraminate-beta-g …: MVTLRKRTLKVLTFLVLFIFLTSFFLNYSHTMVATTWFPKQMVLELSENLKRLIKHRPCTCTHCIGQRKLSAWFDERFNQTMQPLLTAQNALLEDDTYRWWLRLQREKKPNNLNDTIKELFRVVPGNVDPMLEKRSVGCRRCAVVGNSGNLRESSYGPEIDSHDFVLRMNKAPTAGFEADVGTKTTHHLVYPESFRELGDNVSMILVPFKTIDLEWVVSAITTGTISHTYIPVPAKIRVKQDKILIYHPAFIKYVFDNWLQGHGRYPSTGILSVIFSMHVCDEVDLYGFGADSKGNWHHYWENNPSAGAFRKTGVHDADFESNVTATLASINKIRIFKGR
[2]; listed as YT-5-1
  Specific activity: 10.7 pU/AU
[2]; listed as YT-5-2
  Specific activity: 15.8 pU/AU
[2]; listed as YT-5-3
  Specific activity: 12.3 pU/AU
[2]; listed as YT-5-4
  Specific activity: 14.9 pU/AU
[1]; listed as YT-5-1
  Activity: 1.29 mU/ml
[1]; listed as YT-5-2
  Activity: 2.07 mU/ml
[1]; listed as YT-5-3
  Activity: 1.86 mU/ml
[1]; listed as YT-5-4
  Activity: 2.29 mU/ml

B4: YT-2: ST3GalI crude enzyme solution from O. minuta strain with control plasmid pOMexGP1U, no OmPDI1 (protein, UniProt Q11201 1-340, looked up)
CMP-N-acetylneuraminate-beta-g …: MVTLRKRTLKVLTFLVLFIFLTSFFLNYSHTMVATTWFPKQMVLELSENLKRLIKHRPCTCTHCIGQRKLSAWFDERFNQTMQPLLTAQNALLEDDTYRWWLRLQREKKPNNLNDTIKELFRVVPGNVDPMLEKRSVGCRRCAVVGNSGNLRESSYGPEIDSHDFVLRMNKAPTAGFEADVGTKTTHHLVYPESFRELGDNVSMILVPFKTIDLEWVVSAITTGTISHTYIPVPAKIRVKQDKILIYHPAFIKYVFDNWLQGHGRYPSTGILSVIFSMHVCDEVDLYGFGADSKGNWHHYWENNPSAGAFRKTGVHDADFESNVTATLASINKIRIFKGR
[1]
  Specific activity: 2.13 pU/AU
